The supplement of paper PMC5998384

Key:
HeLa Kyoto [1] = test: solubility change mitosis vs G1/S (difference of NP-40 vs SDS log2 ratios) (log2 ratio difference); higher = more soluble in mitosis
HeLa Kyoto [2] = test: melting temperature (median over replicates), in situ; higher = more thermally stable
HeLa Kyoto [3] = test: thermal stability score vs G1/S (z-score of summed log2 fold changes over temperatures); higher = more thermally stable than in G1/S
HeLa Kyoto [4] = test: solubility in G1/S (NP-40 vs SDS abundance) (log2 ratio); higher = more soluble; details: cell cycle stage: G1/S
[5] = cell cycle stage: early G1 (4.5 h after nocodazole release)
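Wherever melting temperature (median over replicates), in situ is given: HeLa Kyoto cells synchronized by double thymidine or nocodazole block, proteins quantified by TMT10plex mass spectrometry, three independent biological replicates.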
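Wherever solubility change mitosis vs G1/S (difference of NP-40 vs SDS log2 ratios) is given: synchronized HeLa Kyoto cells (double thymidine block for G1/S, nocodazole release for mitosis), protein amounts in NP-40 versus SDS lysates quantified by mass spectrometry, three biological replicates.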
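Wherever solubility in G1/S (NP-40 vs SDS abundance) is given: HeLa Kyoto cells arrested at G1/S by double thymidine block, proteins quantified by TMT10plex mass spectrometry in mild NP-40 versus SDS extracts, three biological replicates.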
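Wherever thermal stability score vs G1/S (z-score of summed log2 fold changes over temperatures) is given: synchronized HeLa Kyoto cells, proteins quantified by TMT10plex mass spectrometry, three biological replicates, mitosis taken 0.5 h after nocodazole release, G1/S directly after double thymidine block.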

Substance	solubility change mitosis (log2) (HeLa Kyoto [1])	melting temperature (HeLa Kyoto [2]; cell cycle stage: G1/S) [°C]	melting temperature (HeLa Kyoto [2]; cell cycle stage: mitosis) [°C]	thermal stability score (HeLa Kyoto [3]; [5])	thermal stability score (HeLa Kyoto [3]; cell cycle stage: mitosis)	solubility in G1/S (log2) (HeLa Kyoto [4])
MVEEVQKHSVHTLVFRSLKRTHDMFVADNGKPVPLDEESHKRKMAIKLRNEYGPVLHMPTSKENLKEKGPQNATDSYVHKQYPANQGQEVEYFVAGTHPYPPGPGVALTADTKIQRMPSESAAQSLAVALPLQTKADANRTAPSGSEYRHPGASDRPQPTAMNSIVMETGNTKNSALMAKKAPTMPKPQWHPPWKLYRVISGHLGWVRCIAVEPGNQWFVTGSADRTIKIWDLASGKLKLSLTGHISTVRGVIVSTRSPYLFSCGEDKQVKCWDLEYNKVIRHYHGHLSAVYGLDLHPTIDVLVTCSRDSTARIWDVRTKASVHTLSGHTNAVATVRCQAAEPQIITGSHDTTIRLWDLVAGKTRVTLTNHKKSVRAVVLHPRHYTFASGSPDNIKQWKFPDGSFIQNLSGHNAIINTLTVNSDGVLVSGADNGTMHLWDWRTGYNFQRVHAAVQPGSLDSESGIFACAFDQSESRLLTAEADKTIKVYREDDTATEETHPVSWKPEIIKRKRF [PLRG1]	0.247	50.6	50.6	-0.0826	-5.45	-0.776
MGRSRSRSSSRSKHTKSSKHNKKRSRSRSRSRDKERVRKRSKSRESKRNRRRESRSRSRSTNTAVSRRERDRERASSPPDRIDIFGRTVSKRSSLDEKQKREEEEKKAEFERQRKIRQQEIEEKLIEEETARRVEELVAKRVEEELEKRKDEIEREVLRRVEEAKRIMEKQLLEELERQRQAELAAQKAREEEERAKREELERILEENNRKIAEAQAKLAEEQLRIVEEQRKIHEERMKLEQERQRQQKEEQKIILGKGKSRPKLSFSLKTQD [ARGLU1]	0.866	51	50.4	-5.79	-4.86	-1.03
MDVRRLKVNELREELQRRGLDTRGLKAELAERLQAALEAEEPDDERELDADDEPGRPGHINEEVETEGGSELEGTAQPPPPGLQPHAEPGGYSGPDGHYAMDNITRQNQFYDTQVIKQENESGYERRPLEMEQQQAYRPEMKTEMKQGAPTSFLPPEASQLKPDRQQFQSRKRPYEENRGRGYFEHREDRRGRSPQPPAEEDEDDFDDTLVAIDTYNCDLHFKVARDRSSGYPLTIEGFAYLWSGARASYGVRRGRVCFEMKINEEISVKHLPSTEPDPHVVRIGWSLDSCSTQLGEEPFSYGYGGTGKKSTNSRFENYGDKFAENDVIGCFADFECGNDVELSFTKNGKWMGIAFRIQKEALGGQALYPHVLVKNCAVEFNFGQRAEPYCSVLPGFTFIQHLPLSERIRGTVGPKSKAECEILMMVGLPAAGKTTWAIKHAASNPSKKYNILGTNAIMDKMRVMGLRRQRNYAGRWDVLIQQATQCLNRLIQIAARKKRNYILDQTNVYGSAQRRKMRPFEGFQRKAIVICPTDEDLKDRTIKRTDEEGKDVPDHAVLEMKANFTLPDVGDFLDEVLFIELQREEADKLVRQYNEEGRKAGPPPEKRFDNRGGGGFRGRGGGGGFQRYENRGPPGGNRGGFQNRGGGSGGGGNYRGGFNRSGGGGYSQNRWGNNNRDNNNSNNRGSYNRAPQQQPPPQQPPPPQPPPQQPPPPPSYSPARNPPGASTYNKNSNIPGSSANTSTPTVSSYSPPQPSYSQPPYNQGGYSQGYTAPPPPPPPPPAYNYGSYGGYNPAPYTPPPPPTAQTYPQPSYNQYQQYAQQWNQYYQNQGQWPPYYGNYDYGSYSGNTQGGTSTQ [HNRNPUL1]	-0.0379	46.9	49.2	3.72	6.44	-0.152
MERPDKAALNALQPPEFRNESSLASTLKTLLFFTALMITVPIGLYFTTKSYIFEGALGMSNRDSYFYAAIVAVVAVHVVLALFVYVAWNEGSRQWREGKQD [VMA21]	-0.124	55.6	56.7	-1.79	-0.397	-0.135
MDCYTANWNPLGDSAFYRKYELYSMDWDLKEELRDCLVAAAPYGGPIALLRNPWRKEKAASVRPVLDIYSASGMPLASLLWKSGPVVSLGWSAEEELLCVQEDGAVLVYGLHGDFRRHFSMGNEVLQNRVLDARIFHTEFGSGVAILTGAHRFTLSANVGDLKLRRMPEVPGLQSAPSCWTVLCQDRVAHILLAVGPDLYLLDHAACSAVTPPGLAPGVSSFLQMAVSFTYRHLALFTDTGYIWMGTASLKEKLCEFNCNIRAPPKQMVWCSRPRSKERAVVVAWERRLMVVGDAPESIQFVLDEDSYLVPELDGVRIFSRSTHEFLHEVPAASEEIFKIASMAPGALLLEAQKEYEKESQKADEYLREIQELGQLTQAVQQCIEAAGHEHQPDMQKSLLRAASFGKCFLDRFPPDSFVHMCQDLRVLNAVRDYHIGIPLTYSQYKQLTIQVLLDRLVLRRLYPLAIQICEYLRLPEVQGVSRILAHWACYKVQQKDVSDEDVARAINQKLGDTPGVSYSDIAARAYGCGRTELAIKLLEYEPRSGEQVPLLLKMKRSKLALSKAIESGDTDLVFTVLLHLKNELNRGDFFMTLRNQPMALSLYRQFCKHQELETLKDLYNQDDNHQELGSFHIRASYAAEERIEGRVAALQTAADAFYKAKNEFAAKATEDQMRLLRLQRRLEDELGGQFLDLSLHDTVTTLILGGHNKRAEQLARDFRIPDKRLWWLKLTALADLEDWEELEKFSKSKKSPIGYLPFVEICMKQHNKYEAKKYASRVGPEQKVKALLLVGDVAQAADVAIEHRNEAELSLVLSHCTGATDGATADKIQRARAQAQKK [VPS16]	-0.12	49.9	50.1	0.278	0.681	-0.206
MLCGRWRRCRRPPEEPPVAAQVAAQVAAPVALPSPPTPSDGGTKRPGLRALKKMGLTEDEDVRAMLRGSRLRKIRSRTWHKERLYRLQEDGLSVWFQRRIPRAPSQHIFFVQHIEAVREGHQSEGLRRFGGAFAPARCLTIAFKGRRKNLDLAAPTAEEAQRWVRGLTKLRARLDAMSQRERLDHWIHSYLHRADSNQDSKMSFKEIKSLLRMVNVDMNDMYAYLLFKECDHSNNDRLEGAEIEEFLRRLLKRPELEEIFHQYSGEDRVLSAPELLEFLEDQGEEGATLARAQQLIQTYELNETAKQHELMTLDGFMMYLLSPEGAALDNTHTCVFQDMNQPLAHYFISSSHNTYLTDSQIGGPSSTEAYVRAFAQGCRCVELDCWEGPGGEPVIYHGHTLTSKILFRDVVQAVRDHAFTLSPYPVILSLENHCGLEQQAAMARHLCTILGDMLVTQALDSPNPEELPSPEQLKGRVLVKGKKLPAARSEDGRALSDREEEEEDDEEEEEEVEAAAQRRLAKQISPELSALAVYCHATRLRTLHPAPNAPQPCQVSSLSERKAKKLIREAGNSFVRHNARQLTRVYPLGLRMNSANYSPQEMWNSGCQLVALNFQTPGYEMDLNAGRFLVNGQCGYVLKPACLRQPDSTFDPEYPGPPRTTLSIQVLTAQQLPKLNAEKPHSIVDPLVRIEIHGVPADCARQETDYVLNNGFNPRWGQTLQFQLRAPELALVRFVVEDYDATSPNDFVGQFTLPLSSLKQGYRHIHLLSKDGASLSPATLFIQIRIQRS [PLCD3]	0.0889	51.6	48.9	0.427	0.0629	-0.344
MAFLRSMWGVLSALGRSGAELCTGCGSRLRSPFSFVYLPRWFSSVLASCPKKPVSSYLRFSKEQLPIFKAQNPDAKTTELIRRIAQRWRELPDSKKKIYQDAYRAEWQVYKEEISRFKEQLTPSQIMSLEKEIMDKHLKRKAMTKKKELTLLGKPKRPRSAYNVYVAERFQEAKGDSPQEKLKTVKENWKNLSDSEKELYIQHAKEDETRYHNEMKSWEEQMIEVGRKDLLRRTIKKQRKYGAEEC [TFAM]	0.546	53.1	53	-1.96	-1.16	0.578
SBF1	-0.108	50.9	50.4	0.301	-0.247	-0.118
MSSEPPPPPQPPTHQASVGLLDTPRSRERSPSPLRGNVVPSPLPTRRTRTFSATVRASQGPVYKGVCKCFCRSKGHGFITPADGGPDIFLHISDVEGEYVPVEGDEVTYKMCSIPPKNEKLQAVEVVITHLAPGTKHETWSGHVISS [CARHSP1]	0.089	54.7	55.2	-0.479	-0.699	0.691
MKPLVVFVLGGPGAGKGTQCARIVEKYGYTHLSAGELLRDERKNPDSQYGELIEKYIKEGKIVPVEITISLLKREMDQTMAANAQKNKFLIDGFPRNQDNLQGWNKTMDGKADVSFVLFFDCNNEICIERCLERGKSSGRSDDNRESLEKRIQTYLQSTKPIIDLYEEMGKVKKIDASKSVDEVFDEVVQIFDKEG [CMPK1]	0.065	51.1	52.2	1.52	0.905	0.272
MLPAALLRRPGLGRLVRHARAYAEAAAAPAAASGPNQMSFTFASPTQVFFNGANVRQVDVPTLTGAFGILAAHVPTLQVLRPGLVVVHAEDGTTSKYFVSSGSIAVNADSSVQLLAEEAVTLDMLDLGAAKANLEKAQAELVGTADEATRAEIQIRIEANEALVKALE [ATP5D]	-0.0082	55.7	54.5	-2.35	-1.13	0.603
MHQQKRQPELVEGNLPVFVFPTELIFYADDQSTHKQVLTLYNPYEFALKFKVLCTTPNKYVVVDAAGAVKPQCCVDIVIRHRDVRSCHYGVIDKFRLQVSEQSQRKALGRKEVVATLLPSAKEQQKEEEEKRLKEHLTESLFFEQSFQPENRAVSSGPSLLTVFLGVVCIAALMLPTLGDVESLVPLYLHLSVNQKLVAAYILGLITMAILRT [MOSPD1]	0.352	54.2	54.9	-1.29	-2.15	0.0717
MIPLLLAALLCVPAGALTCYGDSGQPVDWFVVYKLPALRGSGEAAQRGLQYKYLDESSGGWRDGRALINSPEGAVGRSLQPLYRSNTSQLAFLLYNDQPPQPSKAQDSSMRGHTKGVLLLDHDGGFWLVHSVPNFPPPASSAAYSWPHSACTYGQTLLCVSFPFAQFSKMGKQLTYTYPWVYNYQLEGIFAQEFPDLENVVKGHHVSQEPWNSSITLTSQAGAVFQSFAKFSKFGDDLYSGWLAAALGTNLQVQFWHKTVGILPSNCSDIWQVLNVNQIAFPGPAGPSFNSTEDHSKWCVSPKGPWTCVGDMNRNQGEEQRGGGTLCAQLPALWKAFQPLVKNYQPCNGMARKPSRAYKI [DNASE2]	-0.0918	56.2	56.1	-1.39	-2.33	0.364
MFAKATRNFLREVDADGDLIAVSNLNDSDKLQLLSLVTKKKRFWCWQRPKYQFLSLTLGDVLIEDQFPSPVVVESDFVKYEGKFANHVSGTLETALGKVKLNLGGSSRVESQSSFGTLRKQEVDLQQLIRDSAERTINLRNPVLQQVLEGRNEVLCVLTQKITTMQKCVISEHMQVEEKCGGIVGIQTKTVQVSATEDGNVTKDSNVVLEIPAATTIAYGVIELYVKLDGQFEFCLLRGKQGGFENKKRIDSVYLDPLVFREFAFIDMPDAAHGISSQDGPLSVLKQATLLLERNFHPFAELPEPQQTALSDIFQAVLFDDELLMVLEPVCDDLVSGLSPTVAVLGELKPRQQQDLVAFLQLVGCSLQGGCPGPEDAGSKQLFMTAYFLVSALAEMPDSAAALLGTCCKLQIIPTLCHLLRALSDDGVSDLEDPTLTPLKDTERFGIVQRLFASADISLERLKSSVKAVILKDSKVFPLLLCITLNGLCALGREHS [DFNA5]	-0.126	52.8	53.7	1.33	2.07	-0.0213
